Laboratory results as given in US20060073571A1.

Molecular target: recombinant chimeric hLH-R-hCG-β fusion protein (full-length human lutropin hormone receptor, Arg-Ser linker, full-length human chorionic gonadotropin-β) (human)
Test: cell-based or functional assay

recombinant chimeric hLH-R-hCG-β fusion protein (full-length human lutropin hormone receptor, Arg-Ser linker, full-length human chorionic gonadotropin-β) (human), sequence (chain, as listed by the source mutant limits assumed): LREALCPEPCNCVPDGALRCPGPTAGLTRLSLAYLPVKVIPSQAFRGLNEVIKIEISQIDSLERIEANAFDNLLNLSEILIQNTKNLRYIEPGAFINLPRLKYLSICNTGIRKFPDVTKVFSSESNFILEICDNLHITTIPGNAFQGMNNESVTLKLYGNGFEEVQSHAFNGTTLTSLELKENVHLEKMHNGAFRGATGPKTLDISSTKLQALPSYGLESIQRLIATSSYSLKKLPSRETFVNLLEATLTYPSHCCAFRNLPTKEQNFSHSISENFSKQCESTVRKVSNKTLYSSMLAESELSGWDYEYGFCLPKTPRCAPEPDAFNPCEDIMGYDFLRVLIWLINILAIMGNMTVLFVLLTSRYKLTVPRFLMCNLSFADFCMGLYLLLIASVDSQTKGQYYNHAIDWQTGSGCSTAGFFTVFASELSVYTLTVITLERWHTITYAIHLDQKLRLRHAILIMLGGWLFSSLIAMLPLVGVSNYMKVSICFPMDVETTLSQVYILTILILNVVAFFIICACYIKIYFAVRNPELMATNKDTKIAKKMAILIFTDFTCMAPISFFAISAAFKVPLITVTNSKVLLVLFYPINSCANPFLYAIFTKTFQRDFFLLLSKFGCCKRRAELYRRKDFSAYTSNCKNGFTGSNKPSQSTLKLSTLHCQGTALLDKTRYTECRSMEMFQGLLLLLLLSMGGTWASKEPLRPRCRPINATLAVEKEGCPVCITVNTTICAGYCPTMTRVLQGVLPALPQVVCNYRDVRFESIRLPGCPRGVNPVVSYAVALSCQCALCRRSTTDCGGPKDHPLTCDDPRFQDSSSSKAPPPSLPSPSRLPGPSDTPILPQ

“hCG-β component of the chimeric hLH-R-hCG-β protein (full-length human chorionic gonadotropin-β subunit) (from UniProt P0DN86 21-165) (ligand)” gave an intracellular cAMP in transfected Sf9 cells in the absence of hCG of 13.2 pmol/L.
